Holding throughout (assay): EMSA
(In EMSA bound probe runs differently from free probe, usually more slowly.)

Series [1] has as its target T1, G4P (HIS-G4P-3xFLAG) (artificial (RHAU-derived), UniProt Q9H2U1 53-75+=GTGSGAGTGSGAGTGSGA+53-75, internal_change).
T1 sequence: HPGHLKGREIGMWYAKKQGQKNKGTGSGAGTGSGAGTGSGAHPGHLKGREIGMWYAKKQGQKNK

Series [2] deals with T1, G4P (HIS-G4P-3xFLAG). The source holds these as a separate data set.
Series [3] has as its target T1, G4P (HIS-G4P-3xFLAG). This is another data set of the same source.

Read-outs that look alike come from different tables or passages of the source.

B1: dsCSTB (dsDNA)
DNA 1: CCTGAAGCAGACAGCTAGTGAATTCGGGGCGGGGCGCGGGGCGGGGTACTTGCGTATAACTGTTCCATAGT
DNA 2: ACTATGGAACAGTTATACGCAAGTACCCCGCCCCGCGCCCCGCCCCGAATTCACTAGCTGTCTGCTTCAGG
For the molecule B1, in the series with G4P (HIS-G4P-3xFLAG) [1], the binding result is recorded as “binds”.

B2: C9orf72 (structured_DNA)
DNA: GGGGCCGGGGCCGGGGCCGGGGCC
With B2, the binding result in the series with G4P (HIS-G4P-3xFLAG) [2] is reported as “binds”.

B3: PDGFR-β (structured_DNA)
DNA: AAGGGAGGGCGGCGGGGCAGGGA
In the case of B3, in the series with G4P (HIS-G4P-3xFLAG) [3], the binding result is on record as “binds”.
